Assay results: the RNAGym collection of RNA variant scans (doi:10.7554/elife.90254)

B1: OR4K15 (parent)
chain: GUUAACGGUCAUAGGCCAUGGAAACUAGGAGCACCAUUUCGCUGCCAGUGAAGAAAUGAACAAAGAAAAUCUGGGCCAGGCAGGCAUCAAAAGAAAUAGUCUUGCGCUCAACCAGAAAGUCUGUAAUCAUUUUAAGGGUA

Variants of: B1
Assay: self-cleavage, relative activity (ratio to wild type); higher = more cleavage; in vitro, sequencing; the parent is a self-cleaving ribozyme

Row | Variant | self-cleavage
1 | A69G U130G | 1.3
2 | G74U A82G | 0.28
3 | A69U U122A | 2.21
4 | A69G A95G | 1.8
5 | U70C U132C | 0.96
6 | U70C U132A | 0.38
7 | A69G A129U | 0.33
8 | G75C A116G | 0.05
9 | U72A C101U | 0.04
10 | G74U A114G | 0.03
11 | A69U A126U | 0.72
12 | G75A A90G | 0.13
13 | G74A G115U | 0.03
14 | U70C A110U | 0.92
15 | G73A A111G | 0.02
16 | U72A U127G | 0.23
17 | U70C G106A | 0.01
18 | U72A A134U | 0.27
19 | C71U U131C | 0.25
20 | G75A A92G | 0.08
21 | U70C A114G | 0.12
22 | U72C C81A | 0.26
23 | U70C A116G | 1.52
24 | U70C A116U | 0.34

Row | Variant | self-cleavage
25 | U72C G79A | 0.32
26 | U72G A135C | 0.33
27 | U70C A94G | 0.77
28 | U72C C112U | 0.02
29 | U70A A125G | 0.44
30 | G73A U131C | 0.08
31 | G75A U97C | 0.15
32 | U70C U87A | 0.61
33 | U70C U87C | 0.09
34 | U72C U100C | 0.34
35 | U70C A134G | 0.72
36 | U72C A140C | 0.44
37 | U72C G104A | 0.01
38 | A69C A96C | 1.03
39 | U70A A116U | 0.79
40 | U70C A125U | 1.06
41 | U70C A125G | 0.19
42 | G74A A82U | 0.32
43 | G74A A116G | 0.12
44 | U72G A118G | 0.22
45 | U70A U108C | 0.01
46 | U70C G123A | 1.18
47 | U72C A91C | 0.27
48 | C71U | 0.17

Row | Variant | self-cleavage
49 | C71G | 0.24
50 | C71A | 0.61
51 | U72A A129U | 0.23
52 | U72A A129G | 0.08
53 | U70C A111U | 0.07
54 | U72C U124G | 0.07
55 | C71U A129G | 0.08
56 | G75A A134G | 0.09
57 | U70A A89G | 1.13
58 | U72C A89U | 0.45
59 | G74A U87C | 0.19
60 | C76U A82G | 0.09
61 | U72A C105U | 0.04
62 | A69G C81A | 0.15
63 | U72A A118G | 0.12
64 | U70C G119A | 1.49
65 | U70G U97C | 1.01
66 | U72A U132C | 0.23
67 | U72A U132A | 0.25
68 | G75A A116G | 0.06
69 | U70A A111G | 0.04
70 | C76G U122C | 0.15
71 | C76A A110G | 0.05
72 | U72C G84U | 0.35

Row | Variant | self-cleavage
73 | G73U U122C | 0.1
74 | U72C C76U | 0.22
75 | U72A U103C | 0.14
76 | U72C A110G | 0.06
77 | U70A A91G | 1.22
78 | U70C U103C | 0.56
79 | A69G U72C | 0.3
80 | A69G U72A | 0.19
81 | G74U A117G | 0.02
82 | A69G U102A | 0.58
83 | A69G U102C | 2.06
84 | A69G G73U | 0.33
85 | A69U U103A | 1.87
86 | A69U A82U | 0.04
87 | A69U A82G | 0.63
88 | U70G U127C | 0.57
89 | G75U U87C | 0.11
90 | G74C U139C | 0.15
91 | U70C A140U | 0.96
92 | U70C A140G | 0.38
93 | U70C G74U | 0.17
94 | G74A C128U | 0.13
95 | C71U C105U | 0.07
96 | C71A A95G | 0.88

Row | Variant | self-cleavage
97 | U72C A94C | 0.1
98 | U72C A94G | 0.07
99 | G75C A111G | 0
100 | G73A A129G | 0.07
101 | U70C A96G | 0.75
102 | A69G U127C | 0.82
103 | G73A C88U | 0.17
104 | G74A U131C | 0.19
105 | A69G A111G | 0.03
106 | U72G U132A | 0.44
107 | C71U U87A | 0.61
108 | U72A A78G | 0.05
109 | U72A A92G | 0.26
110 | A69G A110U | 0.98
111 | A69G A110G | 0.14
112 | U70A A92G | 0.4
113 | U70C C107U | 0.02
114 | U70C U139C | 0.7
115 | U70C U139A | 1.3
116 | A69U U87A | 1.79
117 | G75A A114G | 0.04
118 | G75A A114U | 0.02
119 | U70C C113G | 0.02
120 | U70C C113U | 0.02

Row | Variant | self-cleavage
121 | U70C A98G | 0.41
122 | G73A A89C | 0.14
123 | A69G U97C | 0.98
124 | G73A A78G | 0.21
125 | G74U A94G | 0.41
126 | A68U U132G | 0.9
127 | U72C G136C | 0.31
128 | U72C A86U | 0.14
129 | U72C A86G | 0.14
130 | U70A U120C | 0.41
131 | A69C G84U | 0.82
132 | U70A U139C | 1.06
133 | U72C A135U | 0.28
134 | A69U A140U | 2.31
135 | U72G U103C | 0.07
136 | U72A A125G | 0.05
137 | A69G A117U | 0.97
138 | A69G A117G | 1.44
139 | U70A U103C | 0.68
140 | G74C A89G | 0.07
141 | U72G A86G | 0.1
142 | U70C A91G | 0.6
143 | U72A U124C | 0.04
144 | A69U U130C | 0.9

Row | Variant | self-cleavage
145 | C76A G104A | 0.03
146 | U72G A94G | 0.09
147 | C71A U97C | 0.18
148 | U70G U102C | 0.64
149 | C71A A86G | 0.28
150 | U72A A89G | 0.36
151 | A69G A114G | 0.17
152 | U72G G74A | 0.18
153 | U72A U120A | 0.17
154 | U70C C121U | 1.42
155 | A69G C71A | 0.43
156 | U70C U120A | 0.8
157 | U70C U120C | 0.25
158 | U70A C105U | 0.16
159 | U72C U102C | 0.36
160 | A69U A114G | 2.05
161 | G74U U97C | 0.22
162 | U70A U127A | 2.27
163 | A69G U139C | 1.24
164 | U70A A135G | 0.74
165 | C76G A82U | 0.22
166 | G73A U127C | 0.11
167 | A69U U132C | 1.11
